According to IntAct's records for PubMed 23572552:

B1: TBC1 domain family member 22A (Homo sapiens), Q8WUA7 (parent)
chain: MASDGARKQFWKRSNSKLPGSIQHVYGAQHPPFDPLLHGTLLRSTAKMPTTPVKAKRVSTFQEFESNTSDAWDAGEDDDELLAMAAESLNSEVVMETANRVLRNHSQRQGRPTLQEGPGLQQKPRPEAEPPSPPSGDLRLVKSVSESHTSCPAESASDAAPLQRSQSLPHSATVTLGGTSDPSTLSSSALSEREASRLDKFKQLLAGPNTDLEELRRLSWSGIPKPVRPMTWKLLSGYLPANVDRRPATLQRKQKEYFAFIEHYYDSRNDEVHQDTYRQIHIDIPRMSPEALILQPKVTEIFERILFIWAIRHPASGYVQGINDLVTPFFVVFICEYIEAEEVDTVDVSGVPAEVLCNIEADTYWCMSKLLDGIQDNYTFAQPGIQMKVKMLEELVSRIDEQVHRHLDQHEVRYLQFAFRWMNNLLMREVPLRCTIRLWDTYQSEPDGFSHFHLYVCAAFLVRWRKEILEEKDFQELLLFLQNLPTAHWDDEDISLLLAEAYRLKFAFADAPNHYKK

Variants of: B1
Conditions: with gcp60_human ACBD3, Q9H3P7

Variant | effect of a mutation on the interaction
MASDGARKQFWKRSNSKLPGSIQHVYGAQHPPFDPLLHGTLLRSTAKMPTTPVKAKRVSTFQEFESNTSDAWDAGEDDDELLAMAAESLNSEVVMAAANRVLRNHSQRQGRPTLQEGPGLQQKPRPEAEPPSPPSGDLRLVKSVSESHTSCPAESASDAAPLQRSQSLPHSATVTLGGTSDPSTLSSSALSEREASRLDKFKQLLAGPNTDLEELRRLSWSGIPKPVRPMTWKLLSGYLPANVDRRPATLQRKQKEYFAFIEHYYDSRNDEVHQDTYRQIHIDIPRMSPEALILQPKVTEIFERILFIWAIRHPASGYVQGINDLVTPFFVVFICEYIEAEEVDTVDVSGVPAEVLCNIEADTYWCMSKLLDGIQDNYTFAQPGIQMKVKMLEELVSRIDEQVHRHLDQHEVRYLQFAFRWMNNLLMREVPLRCTIRLWDTYQSEPDGFSHFHLYVCAAFLVRWRKEILEEKDFQELLLFLQNLPTAHWDDEDISLLLAEAYRLKFAFADAPNHYKK [E96A;T97A] | with no effect
MASDGARKQFWKRSNSKLPGSIQHVYGAQHPPFDPLLHGTLLRSTAKMPTTPVKAKRVSTFQEFESNTSDAWDAGEDDDELLAMAAESLNSAAVMETANRVLRNHSQRQGRPTLQEGPGLQQKPRPEAEPPSPPSGDLRLVKSVSESHTSCPAESASDAAPLQRSQSLPHSATVTLGGTSDPSTLSSSALSEREASRLDKFKQLLAGPNTDLEELRRLSWSGIPKPVRPMTWKLLSGYLPANVDRRPATLQRKQKEYFAFIEHYYDSRNDEVHQDTYRQIHIDIPRMSPEALILQPKVTEIFERILFIWAIRHPASGYVQGINDLVTPFFVVFICEYIEAEEVDTVDVSGVPAEVLCNIEADTYWCMSKLLDGIQDNYTFAQPGIQMKVKMLEELVSRIDEQVHRHLDQHEVRYLQFAFRWMNNLLMREVPLRCTIRLWDTYQSEPDGFSHFHLYVCAAFLVRWRKEILEEKDFQELLLFLQNLPTAHWDDEDISLLLAEAYRLKFAFADAPNHYKK [E92A;V93A] | with no effect
MASDGARKQFWKRSNSKLPGSIQHVYGAQHPPFDPLLHGTLLRSTAKMPTTPVKAKRVSTFQEFESNTSDAWDAGEDDDELLAMAAESLNSEVVMETANRVLAAASQRQGRPTLQEGPGLQQKPRPEAEPPSPPSGDLRLVKSVSESHTSCPAESASDAAPLQRSQSLPHSATVTLGGTSDPSTLSSSALSEREASRLDKFKQLLAGPNTDLEELRRLSWSGIPKPVRPMTWKLLSGYLPANVDRRPATLQRKQKEYFAFIEHYYDSRNDEVHQDTYRQIHIDIPRMSPEALILQPKVTEIFERILFIWAIRHPASGYVQGINDLVTPFFVVFICEYIEAEEVDTVDVSGVPAEVLCNIEADTYWCMSKLLDGIQDNYTFAQPGIQMKVKMLEELVSRIDEQVHRHLDQHEVRYLQFAFRWMNNLLMREVPLRCTIRLWDTYQSEPDGFSHFHLYVCAAFLVRWRKEILEEKDFQELLLFLQNLPTAHWDDEDISLLLAEAYRLKFAFADAPNHYKK [R103A;N104A;H105A] | with no effect
MASDGARKQFWKRSNSKLPGSIQHVYGAQHPPFDPLLHGTLLRSTAKMPTTPVKAKRVSTFQEFESNTSDAWDAGEDDDELLAMAAESLAAAVVMETANRVLRNHSQRQGRPTLQEGPGLQQKPRPEAEPPSPPSGDLRLVKSVSESHTSCPAESASDAAPLQRSQSLPHSATVTLGGTSDPSTLSSSALSEREASRLDKFKQLLAGPNTDLEELRRLSWSGIPKPVRPMTWKLLSGYLPANVDRRPATLQRKQKEYFAFIEHYYDSRNDEVHQDTYRQIHIDIPRMSPEALILQPKVTEIFERILFIWAIRHPASGYVQGINDLVTPFFVVFICEYIEAEEVDTVDVSGVPAEVLCNIEADTYWCMSKLLDGIQDNYTFAQPGIQMKVKMLEELVSRIDEQVHRHLDQHEVRYLQFAFRWMNNLLMREVPLRCTIRLWDTYQSEPDGFSHFHLYVCAAFLVRWRKEILEEKDFQELLLFLQNLPTAHWDDEDISLLLAEAYRLKFAFADAPNHYKK [N90A;S91A;E92A] | with no effect
MASDGARKQFWKRSNSKLPGSIQHVYGAQHPPFDPLLHGTLLRSTAKMPTTPVKAKRVSTFQEFESNTSDAWDAGEDDDELLAMAAESLNSEAAAATANRVLRNHSQRQGRPTLQEGPGLQQKPRPEAEPPSPPSGDLRLVKSVSESHTSCPAESASDAAPLQRSQSLPHSATVTLGGTSDPSTLSSSALSEREASRLDKFKQLLAGPNTDLEELRRLSWSGIPKPVRPMTWKLLSGYLPANVDRRPATLQRKQKEYFAFIEHYYDSRNDEVHQDTYRQIHIDIPRMSPEALILQPKVTEIFERILFIWAIRHPASGYVQGINDLVTPFFVVFICEYIEAEEVDTVDVSGVPAEVLCNIEADTYWCMSKLLDGIQDNYTFAQPGIQMKVKMLEELVSRIDEQVHRHLDQHEVRYLQFAFRWMNNLLMREVPLRCTIRLWDTYQSEPDGFSHFHLYVCAAFLVRWRKEILEEKDFQELLLFLQNLPTAHWDDEDISLLLAEAYRLKFAFADAPNHYKK [V93A;V94A;M95A;E96A] | decreasing interaction strength
